Data on four molecules can be found in PMC9098846, “Molecular insights into biogenesis of glycosylphosphatidylinositol anchor proteins” (Nature Communications, 2022).

The labels stand for the following.
T1: GPAA1, subunit of the human GPI transamidase (GPI-T) (human, UniProt O43292-1 2-621)
T1 construct: GPAA1, human, Genbank ID NP_003792.1; The 2×Flag tag follows the TGP tag; also called Gaa1p (yeast name); source: Expi293 cells co-transfected with five plasmids carrying all subunits; purified as the GPI-T complex (Strep-Tactin, Ni-NTA, gel filtration) in digitonin
T1 sequence: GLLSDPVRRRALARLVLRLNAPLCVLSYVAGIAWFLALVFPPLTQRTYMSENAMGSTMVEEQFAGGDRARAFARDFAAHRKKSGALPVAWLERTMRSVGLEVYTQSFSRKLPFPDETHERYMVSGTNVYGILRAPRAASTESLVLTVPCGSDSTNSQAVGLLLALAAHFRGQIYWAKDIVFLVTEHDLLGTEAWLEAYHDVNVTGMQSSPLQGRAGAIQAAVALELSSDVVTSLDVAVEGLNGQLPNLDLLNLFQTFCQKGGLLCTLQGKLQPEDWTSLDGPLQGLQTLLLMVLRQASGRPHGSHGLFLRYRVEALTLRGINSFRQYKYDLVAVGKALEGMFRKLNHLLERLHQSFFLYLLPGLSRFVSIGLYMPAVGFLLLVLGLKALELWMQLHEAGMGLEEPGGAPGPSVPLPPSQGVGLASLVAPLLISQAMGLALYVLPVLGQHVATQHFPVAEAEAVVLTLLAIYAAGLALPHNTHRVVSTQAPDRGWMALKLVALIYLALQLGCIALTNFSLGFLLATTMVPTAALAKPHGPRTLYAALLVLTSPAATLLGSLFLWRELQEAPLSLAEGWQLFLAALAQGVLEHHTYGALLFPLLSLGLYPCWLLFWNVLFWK

B1: PIGU, subunit of the human GPI transamidase (GPI-T) (natural protein)
chain: AAPLVLVLVVAVTVRAALFRSSLAEFISERVEVVSPLSSWKRVVEGLSLLDLGVSPYSGAVFHETPLIIYLFHFLIDYAELVFMITDALTAIALYFAIQDFNKVVFKKQKLLLELDQYAPDVAELIRTPMEMRYIPLKVALFYLLNPYTILSCVAKSTCAINNTLIAFFILTTIKGSAFLSAIFLALATYQSLYPLTLFVPGLLYLLQRQYIPVKMKSKAFWIFSWEYAMMYVGSLVVIICLSFFLLSSWDFIPAVYGFILSVPDLTPNIGLFWYFFAEMFEHFSLFFVCVFQINVFFYTIPLAIKLKEHPIFFMFIQIAVIAIFKSYPTVGDVALYMAFFPVWNHLYRFLRNIFVLTCIIIVCSLLFPVLWHLWIYAGSANSNFFYAITLTFNVGQILLISDYFYAFLRREYYLTHGLYLTAKDGTEAMLVLK
notes: PIGU, human, Genbank ID NP_536724.1; gene assembled from overlapping oligonucleotides; also called Gab1p (yeast name); source: Expi293 cells co-transfected with five plasmids carrying all subunits; purified as the GPI-T complex (Strep-Tactin, Ni-NTA, gel filtration) in digitonin; not shown: Strep, C-terminal, kept
B2: PIGK, subunit of the human GPI transamidase (GPI-T) (enzyme)
chain: SHIEDQAEQFFRSGHTNNWAVLVCTSRFWFNYRHVANTLSVYRSVKRLGIPDSHIVLMLADDMACNPRNPKPATVFSHKNMELNVYGDDVEVDYRSYEVTVENFLRVLTGRIPPSTPRSKRLLSDDRSNILIYMTGHGGNGFLKFQDSEEITNIELADAFEQMWQKRRYNELLFIIDTCQGASMYERFYSPNIMALASSQVGEDSLSHQPDPAIGVHLMDRYTFYVLEFLEEINPASQTNMNDLFQVCPKSLCVSTPGHRTDLFQRDPKNVLITDFFGSVRKVEITTETIKLQQDSEIMESSYKEDQMDEKLMEPLKYAEQLPVAQIIHQKPKLKDWHPPGGFILGLWALIIMVFFKTYGIKHMKFIF
modifications: disulfide bond from C92 to PIGT C182
notes: PIGK, human, Genbank ID NP_005473.1; The HA tag follows the TGP tag; also called Gpi8p (yeast name); source: Expi293 cells co-transfected with five plasmids carrying all subunits; purified as the GPI-T complex (Strep-Tactin, Ni-NTA, gel filtration) in digitonin
B3: PIGT, subunit of the human GPI transamidase (GPI-T) (natural protein)
chain: LAEPPRDSLREELVITPLPSGDVAATFQFRTRWDSELQREGVSHYRLFPKALGQLISKYSLRELHLSFTQGFWRTRYWGPPFLQAPSGAELWVWFQDTVTDVDKSWKELSNVLSGIFCASLNFIDSTNTVTPTASFKPLGLANDTDHYFLRYAVLPREVVCTENLTPWKKLLPCSSKAGLSVLLKADRLFHTSYHSQAVHIRPVCRNARCTSISWELRQTLSVVFDAFITGQGKKDWSLFRMFSRTLTEPCPLASESRVYVDITTYNQDNETLEVHPPPTTTYQDVILGTRKTYAIYDLLDTAMINNSRNLNIQLKWKRPPENEAPPVPFLHAQRYVSGYGLQKGELSTLLYNTHPYRAFPVLLLDTVPWYLRLYVHTLTITSKGKENKPSYIHYQPAQDRLQPHLLEMLIQLPANSVTKVSIQFERALLKWTEYTPDPNHGFYVSPSVLSALVPSMVAAKPVDWEESPLFNSLFPVSDGSNYFVRLYTEPLLVNLPTPDFSMPYNVICLTCTVVAVCYGSFYNLLTRTFHIEEPRTGGLAKRLANLIRRARGVPPL
modifications: disulfide bond from C182 to PIGK C92
notes: PIGT, human, Genbank ID NP_057021.2; also called Gpi16p (yeast name); source: Expi293 cells co-transfected with five plasmids carrying all subunits; purified as the GPI-T complex (Strep-Tactin, Ni-NTA, gel filtration) in digitonin; not shown: 9×His, C-terminal, kept
B4: PIGS, subunit of the human GPI transamidase (GPI-T) (natural protein)
chain: AAAGAAATHLEVARGKRAALFFAAVAIVLGLPLWWKTTETYRASLPYSQISGLNALQLRLMVPVTVVFTRESVPLDDQEKLPFTVVHEREIPLKYKMKIKCRFQKAYRRALDHEEEALSSGSVQEAEAMLDEPQEQAEGSLTVYVISEHSSLLPQDMMSYIGPKRTAVVRGIMHREAFNIIGRRIVQVAQAMSLTEDVLAAALADHLPEDKWSAEKRRPLKSSLGYEITFSLLNPDPKSHDVYWDIEGAVRRYVQPFLNALGAAGNFSVDSQILYYAMLGVNPRFDSASSSYYLDMHSLPHVINPVESRLGSSAASLYPVLNFLLYVPELAHSPLYIQDKDGAPVATNAFHSPRWGGIMVYNVDSKTYNASVLPVRVEVDMVRVMEVFLAQLRLLFGIAQPQLPPKCLLSGPTSEGLMTWELDRLLWARSVENLATATTTLTSLAQLLGKISNIVIKDDVASEVYKAVAAVQKSAEELASGHLASAFVASQEAVTSSELAFFDPSLLHLLYFPDDQKFAIYIPLFLPMAVPILLSLVKIFLETRKSWRKPEKTD
notes: PIGS, human, Genbank ID NP_149975.1; The Myc tag follows the TGP tag; also called Gpi17p (yeast name); source: Expi293 cells co-transfected with five plasmids carrying all subunits; purified as the GPI-T complex (Strep-Tactin, Ni-NTA, gel filtration) in digitonin

What all share (test): cryo-EM structure; single-particle cryo-EM of the purified GPI-T complex in 0.1% digitonin, 150 mM NaCl, 20 mM Tris HCl pH 8.0; 2.53 Å; five subunits with 1:1 stoichiometry
Conditions in all cases: both partners purified

For assay [1], the target named is B3.
In assay [2] the target is T1, GPAA1, subunit of the human GPI ….
Assay [3] has as its target B4.
For assay [4], the target named is B1.

On to B1, for which the binding result in assay [1], in assay [2] and in assay [3] was “binds” each time.
In the case of B2, the binding result in assay [1], in assay [3] and in assay [4] was “binds” each time.
As to B3, the binding result in assay [2] is “binds”.
As for B4, the binding result in assay [1] is reported as “binds”.
